Test results published in the supplement of paper PMC10567573.

B1: RHOBTB3 (parent)
chain: KVVEAHKIVLCAVSHVFMLLFNVK
B2: IMPA1 (parent)
chain: FIGEESVAAGEKSILTDNPTWIID

Variants of: B1
Experiment: protein stability index of a GFP-peptide fusion (GPS, HEK-293T) (PSI 1-6); higher = more stable
Conditions: c terminus: a fixed tail appended
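Also: lentivirally expressed fusions sorted by FACS into six bins by GFP to DsRed ratio, PSI derived from sequencing read proportions per bin multiplied by bin number.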

| Variant | protein stability index |
| --- | --- |
| KVVEAHKIVLCAVSHVFMLLFNKK [V23K] | 3.66 |
| KVVEAHKIVLCAVSHVFMLLFNRK [V23R] | 3.19 |
| KVVEAHKIVLCAVSHVFMLLFNLK [V23L] | 2.62 |
| KVVEAHKIVLCAVSHVFMLLFNQK [V23Q] | 1.91 |
| KVVEAHKIVLCAVSHVFMLLFNTK [V23T] | 3.33 |
| KVVEAHKIVLCAVSHVFMLLFNPK [V23P] | 2.86 |
| KVVEAHKIVLCAVSHVFMLLFNVL [K24L] | 2.21 |
| KVVEAHKIVLCAVSHVFMLLFNVV [K24V] | 3.19 |
| KVVEAHKIVLCAVSHVFMLLFNVA [K24A] | 3.31 |
| KVVEAHKIVLCAVSHVFMLLFNVD [K24D] | 3.08 |
| KVVEAHKIVLCAVSHVFMLLFNVF [K24F] | 2.39 |
| KVVEAHKIVLCAVSHVFMLLFNVE [K24E] | 3.19 |
| KVVEAHKIVLCAVSHVFMLLFNVH [K24H] | 1.55 |
| KVVEAHKIVLCAVSHVFMLLFNVG [K24G] | 2.28 |
| KVVEAHKIVLCAVSHVFMLLFNVY [K24Y] | 2.57 |
| KVVEAHKIVLCAVSHVFMLLFNVM [K24M] | 2.27 |
| KVVEAHKIVLCAVSHVFMLLFNVR [K24R] | 2.48 |
| KVVEAHKIVLCAVSHVFMLLFNVP [K24P] | 3.35 |
| KVVEAHKIVLCAVSHVFMLLFNVT [K24T] | 2.95 |
| KVVEAHKIVLCAVSHVFMLLFNVI [K24I] | 2.06 |

| Variant | protein stability index |
| --- | --- |
| KVVEAHKIVLCAVSHVFMLLFNVC [K24C] | 2.8 |
| KVVEAHKIVLCAVSHVFMLLFNVN [K24N] | 4.04 |
| KVVEAHKIVLCAVSHVFMLLFNVW [K24W] | 2.42 |
| KVVEAHKIVLCAVSHVFMLPFNVK [L20P] | 2.49 |
| KVVEAHKIVLCAVSHVFMLKFNVK [L20K] | 1.89 |
| KVVEAHKIVLCAVSHVFMLMFNVK [L20M] | 2.63 |
| KVVEAHKIVLCAVSHVFMLGFNVK [L20G] | 1.26 |
| KVVEAHKIVLCAVSHVFMLQFNVK [L20Q] | 2.37 |
| KVVEAHKIVLCAVSHVFMLRFNVK [L20R] | 1.77 |
| KVVEAHKIVLCAVSHVFMLHFNVK [L20H] | 3.28 |
| KVVEAHKIVLCAVSHVFMLIFNVK [L20I] | 1.74 |
| KVVEAHKIVLCAVSHVFMLYFNVK [L20Y] | 3.49 |
| KVVEAHKIVLCAVSHVFMLNFNVK [L20N] | 3.15 |
| KVVEAHKIVLCAVSHVFMLAFNVK [L20A] | 3.27 |
| KVVEAHKIVLCAVSHVFMLFFNVK [L20F] | 2.97 |
| KVVEAHKIVLCAVSHVFMLVFNVK [L20V] | 2.42 |
| KVVEAHKIVLCAVSHVFMLDFNVK [L20D] | 3.54 |
| KVVEAHKIVLCAVSHVFMLSFNVK [L20S] | 2.6 |
| KVVEAHKIVLCAVSHVFMLWFNVK [L20W] | 1.9 |
| KVVEAHKIVLCAVSHVFMLEFNVK [L20E] | 1.65 |

Variants of: B2
Experiment: as above
Conditions: c terminus: a fixed tail appended

| Variant | protein stability index |
| --- | --- |
| FWGEESVAAGEKSILTDNPTWIID [I2W] | 2.74 |
| FAGEESVAAGEKSILTDNPTWIID [I2A] | 2.59 |
| FFGEESVAAGEKSILTDNPTWIID [I2F] | 3.65 |
| FGGEESVAAGEKSILTDNPTWIID [I2G] | 4.24 |
| FCGEESVAAGEKSILTDNPTWIID [I2C] | 2.27 |
| FYGEESVAAGEKSILTDNPTWIID [I2Y] | 3.4 |
| FRGEESVAAGEKSILTDNPTWIID [I2R] | 4.28 |
| FEGEESVAAGEKSILTDNPTWIID [I2E] | 4.82 |
| FSGEESVAAGEKSILTDNPTWIID [I2S] | 3.65 |
| FHGEESVAAGEKSILTDNPTWIID [I2H] | 2.59 |
| FVGEESVAAGEKSILTDNPTWIID [I2V] | 1.1 |
| FLGEESVAAGEKSILTDNPTWIID [I2L] | 2.99 |
| FTGEESVAAGEKSILTDNPTWIID [I2T] | 2.83 |
| FQGEESVAAGEKSILTDNPTWIID [I2Q] | 3.89 |
| FDGEESVAAGEKSILTDNPTWIID [I2D] | 4.79 |
| FKGEESVAAGEKSILTDNPTWIID [I2K] | 4.42 |
| FPGEESVAAGEKSILTDNPTWIID [I2P] | 3.05 |
| FNGEESVAAGEKSILTDNPTWIID [I2N] | 4.25 |
| FMGEESVAAGEKSILTDNPTWIID [I2M] | 3.7 |
| FIEEESVAAGEKSILTDNPTWIID [G3E] | 3.55 |
| FIFEESVAAGEKSILTDNPTWIID [G3F] | 1.93 |
| FIDEESVAAGEKSILTDNPTWIID [G3D] | 3.27 |
| FIIEESVAAGEKSILTDNPTWIID [G3I] | 1.4 |
| FIKEESVAAGEKSILTDNPTWIID [G3K] | 2.17 |
| FICEESVAAGEKSILTDNPTWIID [G3C] | 1.31 |
| FIPEESVAAGEKSILTDNPTWIID [G3P] | 1.87 |
| FIHEESVAAGEKSILTDNPTWIID [G3H] | 1.86 |

| Variant | protein stability index |
| --- | --- |
| FIQEESVAAGEKSILTDNPTWIID [G3Q] | 2.52 |
| FILEESVAAGEKSILTDNPTWIID [G3L] | 1.6 |
| FIMEESVAAGEKSILTDNPTWIID [G3M] | 1.78 |
| FITEESVAAGEKSILTDNPTWIID [G3T] | 1.92 |
| FIAEESVAAGEKSILTDNPTWIID [G3A] | 2.05 |
| FISEESVAAGEKSILTDNPTWIID [G3S] | 1.89 |
| FIREESVAAGEKSILTDNPTWIID [G3R] | 1.64 |
| FINEESVAAGEKSILTDNPTWIID [G3N] | 1.99 |
| PIGEESVAAGEKSILTDNPTWIID [F1P] | 4.56 |
| HIGEESVAAGEKSILTDNPTWIID [F1H] | 4.56 |
| CIGEESVAAGEKSILTDNPTWIID [F1C] | 4.46 |
| DIGEESVAAGEKSILTDNPTWIID [F1D] | 5.07 |
| AIGEESVAAGEKSILTDNPTWIID [F1A] | 4.65 |
| IIGEESVAAGEKSILTDNPTWIID [F1I] | 3.98 |
| RIGEESVAAGEKSILTDNPTWIID [F1R] | 4.38 |
| LIGEESVAAGEKSILTDNPTWIID [F1L] | 4.34 |
| MIGEESVAAGEKSILTDNPTWIID [F1M] | 4.6 |
| QIGEESVAAGEKSILTDNPTWIID [F1Q] | 4.87 |
| TIGEESVAAGEKSILTDNPTWIID [F1T] | 4.76 |
| SIGEESVAAGEKSILTDNPTWIID [F1S] | 4.96 |
| NIGEESVAAGEKSILTDNPTWIID [F1N] | 4.45 |
| WIGEESVAAGEKSILTDNPTWIID [F1W] | 3.74 |
| GIGEESVAAGEKSILTDNPTWIID [F1G] | 4.86 |
| YIGEESVAAGEKSILTDNPTWIID [F1Y] | 2.54 |
| KIGEESVAAGEKSILTDNPTWIID [F1K] | 4.61 |
| EIGEESVAAGEKSILTDNPTWIID [F1E] | 4.81 |
| VIGEESVAAGEKSILTDNPTWIID [F1V] | 4.52 |
